These results are taken from article PMC12680531 (2026).

No end group written: not given here.

The assay addresses 12A8. In words: SPR. (In general: SPR reads the build-up and loss of mass on a sensor chip optically.)

B1: biotinylated hTM4SF4 (T126-E140) peptide containing a GSAGGS spacer (peptide)
peptide: TWGYPFHDGDYLNDE
modifications: also: biotin, position not given here, GSAGGS spacer, position not given here
Turning to B1, the Kd (in general, the free concentration of one partner at which half of the binding sites on the other are occupied at equilibrium, for simple one-to-one binding) was determined as 8.34 nM.
